Experimental data from publication PMC5840032 (Bioorganic & medicinal chemistry, 2017).

Target: anthrax lethal factor (LF) protease (UniProt P15917 34-809)
Experiment: enzyme inhibition assay

Chain of anthrax lethal factor (LF) protease (P15917 34-809): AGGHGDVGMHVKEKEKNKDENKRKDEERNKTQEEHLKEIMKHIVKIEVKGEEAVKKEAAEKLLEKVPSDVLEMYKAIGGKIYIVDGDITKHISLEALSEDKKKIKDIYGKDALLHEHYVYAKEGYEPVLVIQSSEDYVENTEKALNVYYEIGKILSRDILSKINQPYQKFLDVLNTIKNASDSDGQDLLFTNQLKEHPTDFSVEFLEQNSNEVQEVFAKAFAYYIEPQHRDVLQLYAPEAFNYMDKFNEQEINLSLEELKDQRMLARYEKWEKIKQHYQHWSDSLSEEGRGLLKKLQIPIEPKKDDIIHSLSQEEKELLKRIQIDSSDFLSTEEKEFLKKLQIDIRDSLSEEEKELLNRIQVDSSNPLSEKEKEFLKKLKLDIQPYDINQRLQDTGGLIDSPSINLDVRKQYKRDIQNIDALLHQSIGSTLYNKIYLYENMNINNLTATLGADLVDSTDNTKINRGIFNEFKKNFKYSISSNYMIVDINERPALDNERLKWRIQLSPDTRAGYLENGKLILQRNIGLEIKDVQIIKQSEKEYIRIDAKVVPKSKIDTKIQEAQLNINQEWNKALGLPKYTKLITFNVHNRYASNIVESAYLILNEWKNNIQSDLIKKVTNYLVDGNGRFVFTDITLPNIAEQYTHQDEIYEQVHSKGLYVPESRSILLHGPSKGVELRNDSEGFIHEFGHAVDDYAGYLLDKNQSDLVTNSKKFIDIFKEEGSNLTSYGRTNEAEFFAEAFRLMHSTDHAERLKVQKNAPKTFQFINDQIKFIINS

Binder: GFCRCPCSRYGCWCICTR (not fully specified; backbone-cyclized; three disulfide bonds) [RTD-1 analog clone #52]
- Ki: 946 ± 58 nM

Binder: GFCRCACLHGVCRCICTR (not fully specified; backbone-cyclized; three disulfide bonds) [RTD-1 analog clone #14]
- Ki: 946 ± 47 nM
